# Laboratory results published in patent US20260176336A1 (MESTAG THERAPEUTICS, published 2026).
# Tests used:
# [1] = biological target: T1, human FAP (Acro, cat no FAP-H82Q6) (human, UniProt Q12884 26-760); experiment: BLI (Octet), antibody captured by anti-Fc, FAP as analyte; * value outside instrument specifications
# T1 construct: 'FAP is naturally a dimeric antigen'
# Procedure: Binding to recombinant FAP proteins was investigated by Bio-Layer Interferometry (BLI) using the Octet instrument. Using standard amine coupling chemistry, an anti-Fc antibody was immobilised on the surface of ARG biosensors (Fortebio). The FAP/LTBR bispecific antibodies were loaded on the previously coated surface with anti-Fc capture antibody, followed by a 2-fold series dilution starting at 50 nM of either cyno FAP (Acro, cat no FAP-C82Q5) or human FAP (Acro, cat no FAP-H82Q6). Binding kinetics were studied in a 1× Kinetics buffer where the association was allowed for 200 seconds, followed by dissociation for 400 seconds. Sensor tips were regenerated using 10 mM Glycine pH 2.0. Data generated were referenced by subtracting a parallel buffer blank, the baseline was aligned with the y-axis, inter-step correlation by alignment against dissociation was performed, and the data were smoothed by a Savitzky-Golay filter in the data analysis software. The processed data were fitted using a 1:1 Langmuir binding model with R\hat{ }2 as a measurement of fitting accuracy. The Results are summarised in. Avidity was observed as FAP is naturally a dimeric antigen, and the limited detection by Octet with these molecules has been reached. Species cross-reactivity has been confirmed for all test samples.
# [2] = biological target: T2, human FAP expressed on cells (transfected HEK293; FAP-CHO-K1 recombinant cell line, BPS cat no. 79947) (human, UniProt Q12884 1-760); experiment: flow cytometry, FAP-CHO-K1 cells
# T2 construct: also called HuFAP-HEK293; Hek-FAP
# Procedure: (§1) In short, 1×10⁶ cells were resuspended in the FACS buffer (1% BSA, 0.1% Sodium Azide in PBS), and 50 μl was added to each well (5×10⁴ cells/well) of a 96-U bottom plate. The cells were washed once and resuspended in 50 μl/well of FACS buffer containing a 1:3, 11-point series dilutions of constructs 4.1-4.6 and clones 4.8-4.9 followed by 1 h incubation at 4° C. […] Next, cells were washed and resuspended in FACS buffer and read on Beckman Coulter CytoFLEX. The data were analysed using FloJo V10 and GraphPad Prism v9. Clone 4.7 was tested for binding to A375 (LTBR positive cell line) and the HEK293-FAP overexpressing cell line, as described in examples 2.4 and 3.5. The EC50 values can be found in.
# [3] = biological target: T3, human LTBR endogenously expressed on cells (HepG2, A549, A375, HCC1187, RPMI-7951, primary human breast CAFs) (human, UniProt P36941 31-435); experiment: flow cytometry, A549 cells
# T3 construct: also called lymphotoxin beta receptor; TNFRSF3
# Procedure: as §1
# [4] = biological target: T3, human LTBR endogenously expressed on …; experiment: cell-based or functional assay
# [5] = biological target: T3, human LTBR endogenously expressed on …; experiment: cell-based or functional assay; remark: listed apart in the source
# [6] = biological target: cynomologus recombinant LTBR (Octet, Example 4.8) (cynomolgus (Macaca fascicularis), UniProt P36941 31-227 (human entry), limits assumed); experiment: BLI (Octet), cyno LTBR immobilised on ARG sensor, antibody at 25 nM
# Procedure: A 2-fold series dilution starting at 50 nM of cynomologus recombinant LTBR was immobilised on the surface of ARG biosensors (Fortebio), followed by FAP/LTBR bispecific at 25 nM. Binding kinetics were studied in a 1× Kinetics buffer where the association was allowed for 180 seconds, followed by dissociation for 100 seconds. Sensor tips were regenerated using ethylene glycol. Data generated were referenced by subtracting a parallel buffer blank, the baseline was aligned with the y-axis, inter-step correlation by alignment against dissociation was performed, and the data were smoothed by a Savitzky-Golay filter in the data analysis software. The processed data were fitted using a 1:1 Langmuir binding model with R\hat{ }2 as a measurement of fitting accuracy. The KD values can be found in.
# [7] = biological target: T3, human LTBR endogenously expressed on …; experiment: cell-based or functional assay; remark: listed apart in the source
# [8] = biological target: T3, human LTBR endogenously expressed on …; experiment: cell-based or functional assay; remark: listed apart in the source
# [9] = biological target: T3, human LTBR endogenously expressed on …; experiment: cell-based or functional assay; remark: listed apart in the source
# [10] = biological target: T4, Biotinylated hLTBR-His-Avitag (Acro, cat no LTR-H82E9-25 µg) (human, UniProt P36941 31-227, biotinylated (Avitag)); experiment: BLI (Octet), biotinylated LTBR on SA sensor, antibody as analyte
# T4 construct: bought protein loaded on SA Streptavidin biosensors
# Procedure: Briefly, Biotinylated hLTBR-His-Avitag (Acro, cat no LTR-H82E9-25 μg) was loaded on SA Streptavidin biosensors (Fortebio) in kinetics buffer (ForteBio) followed by a 2-fold dilution series starting at 50 nM of FAP/LTBR bispecific antibodies. Binding kinetics were studied in a 1× Kinetics buffer where the association was allowed for 100 seconds, followed by dissociation for 300 seconds. Data generated were referenced by subtracting a parallel buffer blank, the baseline was aligned with the y-axis, inter-step correlation by alignment against dissociation was performed, and the data were smoothed by a Savitzky-Golay filter in the data analysis software. The processed data were fitted using a 1:1 Langmuir binding model with R\hat{ }2 as a measurement of fitting accuracy. The KD and R\hat{ }2 values can be found in.
# [11] = biological target: T2, human FAP expressed on cells …; experiment: flow cytometry, HEK293-FAP overexpressing cells
# T3 sequence (P36941 31-435): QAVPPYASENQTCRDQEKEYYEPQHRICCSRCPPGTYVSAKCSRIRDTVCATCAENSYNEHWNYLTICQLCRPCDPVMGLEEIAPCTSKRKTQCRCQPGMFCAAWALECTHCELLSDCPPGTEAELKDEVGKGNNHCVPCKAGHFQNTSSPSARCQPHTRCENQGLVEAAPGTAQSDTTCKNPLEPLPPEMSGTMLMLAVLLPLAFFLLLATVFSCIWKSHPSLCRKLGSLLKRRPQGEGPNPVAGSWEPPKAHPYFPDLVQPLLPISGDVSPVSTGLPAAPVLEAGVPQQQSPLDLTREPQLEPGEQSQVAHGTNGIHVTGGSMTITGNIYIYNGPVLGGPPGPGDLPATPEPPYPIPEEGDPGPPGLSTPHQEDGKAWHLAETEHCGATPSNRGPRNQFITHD
# T4 sequence (P36941 31-227 limits assumed): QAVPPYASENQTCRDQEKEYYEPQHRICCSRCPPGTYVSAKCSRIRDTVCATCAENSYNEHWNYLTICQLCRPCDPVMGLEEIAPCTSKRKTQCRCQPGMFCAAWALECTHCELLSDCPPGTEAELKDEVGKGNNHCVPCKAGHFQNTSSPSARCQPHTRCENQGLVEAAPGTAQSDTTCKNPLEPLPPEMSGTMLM
# cynomologus recombinant LTBR (Octet, Example 4.8), sequence (P36941 other isoform, or with tags, fused parts or gaps limits assumed): as the sequence (P36941 31-227 limits assumed) above, with A2V, A7G, Q24R, I45S, N163D, K181R, L184S, P186S counted along it
Binder,Kd [1] [nM],EC50 [2] [nM],EC50 [3] [nM],ICAM1 upregulation in CAFs monoculture assay EC50 [4] [nM],chemokine (CCL5) induction in RPMI-7951 EC50 [5] [nM],Kd [6] [nM],"HepG2 Reporter assay, HepG2:FAP-CHO-K1 Co-culture EC50 [7] [nM]",HCC-1187:RPMI7951 (cis-activation) co-culture assay CCL5 read-out EC50 [8] [nM],"CCL19 upregulation, HCC1187:CAF Co-culture EC50 [9] [nM]",Kd [10] [nM],EC50 [11] [nM]
"Clone 4.5 (bispecific antibody, human IgG1, kappa, L234A L235A, FAP:LTBR 2:1 heterodimer of FAP mAb (clone 3.5) with C terminal fused LTBR VHH (clone 1.6), human IgG1 LALA) heavy 1: not shown heavy 2: QLQLQESGPGLVKPSETLSLTCTVSGGSISSSTYYWGWIRQPPGKGLEWIGSIFYSGNTYYNPSLKSRVTISVDTSKNHFSLKLSSVTAADTAVYYCAREIIEPRPGYFDYWGQGTLVTVSSASTKGPSVFPLAPSSKSTSGGTAALGCLVKDYFPEPVTVSWNSGALTSGVHTFPAVLQSSGLYSLSSVVTVPSSSLGTQTYICNVNHKPSNTKVDKKVEPKSCDKTHTCPPCPAPEAAGGPSVFLFPPKPKDTLMISRTPEVTCVVVDVSHEDPEVKFNWYVDGVEVHNAKTKPREEQYNSTYRVVSVLTVLHQDWLNGKEYKCKVSNKALPAPIEKTISKAKGQPREPQVCTLPPSRDELTKNQVSLSCAVKGFYPSDIAVEWESNGQPENNYKTTPPVLDSDGSFFLVSKLTVDKSRWQQGNVFSCSVMHEALHNHYTQKSLSLSPG light: not shown",0.1,0.11,29,0.011,0.018,5.22,0.04,0.012,0.023,6.5,–
Clone 4.17 (bispecific antibody) heavy 1: not shown heavy 2: QLQLQESGPGLVKPSETLSLTCTVSGGSISSSTYYWGWIRQPPGKGLEWIGSIFYSGNTYYNPSLKSRVTISVDTSKNQFSLRLNSVTAADTAVYYCAREIIEPRPGYFDYWGQGTLVTVSSASTKGPSVFPLAPSSKSTSGGTAALGCLVKDYFPEPVTVSWNSGALTSGVHTFPAVLQSSGLYSLSSVVTVPSSSLGTQTYICNVNHKPSNTKVDKKVEPKSCDKTHTCPPCPAPEAAGGPSVFLFPPKPKDTLMISRTPEVTCVVVDVSHEDPEVKFNWYVDGVEVHNAKTKPREEQYNSTYRVVSVLTVLHQDWLNGKEYKCKVSNKALPAPIEKTISKAKGQPREPQVCTLPPSRDELTKNQVSLSCAVKGFYPSDIAVEWESNGQPENNYKTTPPVLDSDGSFFLVSKLTVDKSRWQQGNVFSCSVMHEALHNHYTQKSLSLSPG light: not shown,–,–,–,–,0.01,–,0.017,–,0.06,–,0.8
Clone 4.18 (bispecific antibody) heavy 1: not shown heavy 2: QLQLQESGPGLVKPSETLSLTCTVSGGSISSSTYYWGWIRQPPGKGLEWIGSIFYSGNTYYNPSLKSRVTISVDTSKNQFSLRLNSVTAADTAVYYCAREIIEPRPGYFDYWGQGTLVTVSSASTKGPSVFPLAPSSKSTSGGTAALGCLVKDYFPEPVTVSWNSGALTSGVHTFPAVLQSSGLYSLSSVVTVPSSSLGTQTYICNVNHKPSNTKVDKKVEPKSCDKTHTCPPCPAPEAAGGPSVFLFPPKPKDTLMISRTPEVTCVVVDVSHEDPEVKFNWYVDGVEVHNAKTKPREEQYNSTYRVVSVLTVLHQDWLNGKEYKCKVSNKALPAPIEKTISKAKGQPREPQVCTLPPSRDELTKNQVSLSCAVKGFYPSDIAVEWESNGQPENNYKTTPPVLDSDGSFFLVSKLTVDKSRWQQGNVFSCSVMHEALHNHYTQKSLSLSPG light: not shown,–,–,–,–,0.067,–,0.023,–,0.12,–,1
"Clone 4.4 (bispecific antibody, human IgG1, kappa, L234A L235A, FAP:LTBR 2:1 heterodimer of FAP mAb (clone 3.6) with C terminal fused LTBR VHH (clone 1.6), human IgG1 LALA) heavy 1: not shown heavy 2: QVQLVQSGAEVKKPGASVKVSCKASGYTFTGYYMHWVRQAPGQGLEWMGWIYPNTGGVNYAQNFQGRVTMTRDTSISTAYMELSRLRSDDTAVYYCARDDYNKNLDYWGQGTLVTVSSASTKGPSVFPLAPSSKSTSGGTAALGCLVKDYFPEPVTVSWNSGALTSGVHTFPAVLQSSGLYSLSSVVTVPSSSLGTQTYICNVNHKPSNTKVDKKVEPKSCDKTHTCPPCPAPEAAGGPSVFLFPPKPKDTLMISRTPEVTCVVVDVSHEDPEVKFNWYVDGVEVHNAKTKPREEQYNSTYRVVSVLTVLHQDWLNGKEYKCKVSNKALPAPIEKTISKAKGQPREPQVCTLPPSRDELTKNQVSLSCAVKGFYPSDIAVEWESNGQPENNYKTTPPVLDSDGSFFLVSKLTVDKSRWQQGNVFSCSVMHEALHNHYTQKSLSLSPG light: not shown",0.231,0.2,45,0.0048,0.028,8.3,0.031,0.012,0.054,4.6,–
Clone 4.16 (bispecific antibody) heavy 1: not shown heavy 2: QVQLVQSGTEVKKPGASVKVSCKASGYTFTGYYMNWVRQAPGQGLEWVGWINPNSGDTNFAQKFQGRVTMTRDSSISTAYMELSRLRSDDTAVYYCARQFRGYSYGYGMDVWGKGTTVTVSSASTKGPSVFPLAPSSKSTSGGTAALGCLVKDYFPEPVTVSWNSGALTSGVHTFPAVLQSSGLYSLSSVVTVPSSSLGTQTYICNVNHKPSNTKVDKKVEPKSCDKTHTCPPCPAPEAAGGPSVFLFPPKPKDTLMISRTPEVTCVVVDVSHEDPEVKFNWYVDGVEVHNAKTKPREEQYNSTYRVVSVLTVLHQDWLNGKEYKCKVSNKALPAPIEKTISKAKGQPREPQVCTLPPSRDELTKNQVSLSCAVKGFYPSDIAVEWESNGQPENNYKTTPPVLDSDGSFFLVSKLTVDKSRWQQGNVFSCSVMHEALHNHYTQKSLSLSPG light: not shown,–,–,–,–,0.0078,–,0.016,–,0.09,–,0.4
